Consider 22 variants from the supplement of paper PMC7125110.

B1: glmS ribozyme (parent)
chain: AUAAAAGCGCCAGAACUACAGAAAUGUAGUUGACGAGGAGGAGGUUUAUCGAAUUUUCGGCGGAUGCCUCCAAA

± gives the standard error. This sample holds only a part of the variants without activity.

Holding throughout (details): with glucosamine-6-phosphate
Variants of B1 are the subject of series [1]. Kind of series: self-cleavage kobs at 640 uM GlcN6P; higher = faster cleavage; RNA array. A digest of the protocol: (§1)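 Weighted Michaelis–Menten fits across concentrations supplied kcat and KM, based on kobs from one- or two-exponential decay fits to normalised per-tile medians. The data came from barcoded ribozyme variants transcribed in situ by E. coli RNA polymerase on sequenced MiSeq chips and tracked at 37 °C by a hybridised Cy3 probe. Glucosamine-6-phosphate (40 μM to 10 mM) in HEPES/KCl/Mg(OAc)2 buffer was flowed in.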

Series [2] covers variants of B1. Description: self-cleavage kobs at 2500 uM GlcN6P; higher = faster cleavage; RNA array. A digest of the protocol:
as §1

Variants of B1 are the subject of series [3]. Kind of series: self-cleavage kobs at 10000 uM GlcN6P; higher = faster cleavage; RNA array. An outline of the steps:
as §1

For the variant AUAAAAGCGGCAGAACUACAGAAAUGUAGUUGACGAGGAGGAGGUUUUUCGUAUUUUCGGCGGAUGCCUCCAAA [C10G A48U A52U], in the series with glucosamine-6-phosphate [1], the “self-cleavage kobs at 640 uM GlcN6P” value is less than 1e-05 s⁻¹. In the case of AUAAAAGAGCCAGAAUUACAGAAAUGUAGUUGACGAGGAGGAGGUUUAUUGAAUUGUCGGCGGAUGCCUCCAAA [C8A C16U C50U U56G], the “self-cleavage kobs at 640 uM GlcN6P” value with glucosamine-6-phosphate [1] is less than 1e-05 s⁻¹.

As to AUAAAAGCGCCAGAACUACAGAAAUGUAGUUGACGAGGAGGAGGUUUAUGGGAUUUUCGUCGGAUGCCUCUAAA [C50G A52G G60U C71U], the “self-cleavage kobs at 640 uM GlcN6P” value with glucosamine-6-phosphate [1] turned out to be 0.000392 ± 0.00013 s⁻¹. Moreover, in the series with glucosamine-6-phosphate [2], the “self-cleavage kobs at 2500 uM GlcN6P” value was 6.62e-05 ± 2.9e-05 s⁻¹. On the same counts, the results for AUAAAAGCGCUAGAACUACAGAAAUGUAGUAGACGAGGAGGAGGUUUAUCGAUUUUUCGGCGGAUGCCUGCAAA [C11U U31A A53U C70G] are 0.000209 ± 6.9e-05 s⁻¹ and 0.000251 ± 8.4e-05 s⁻¹. As to AUAAAAGCGCCAGAACUACAGAAAUGUAGUUGACGAGGAGGAGGUUUAUCGUAUUUUCGGCGGAUGCGUCCAAA [A52U C68G], in the series with glucosamine-6-phosphate [1], the “self-cleavage kobs at 640 uM GlcN6P” value was 0.000375 ± 0.00018 s⁻¹. Moreover, in the series with glucosamine-6-phosphate [2], the “self-cleavage kobs at 2500 uM GlcN6P” value is 4.62e-05 ± 8.4e-06 s⁻¹. The “self-cleavage kobs at 10000 uM GlcN6P” value in the series with glucosamine-6-phosphate [3] came to 1.85e-05 ± 7.8e-06 s⁻¹. Take AUAAAAUCGCCAGAACUACAGAAAUGUAGUUGACGAGGAGGAGGUUUAUCGAAUUUUCGGCGGUUGCCUCCAAA [G7U A64U]: in the series with glucosamine-6-phosphate [1], the “self-cleavage kobs at 640 uM GlcN6P” value was less than 1e-05 s⁻¹. Also, the “self-cleavage kobs at 10000 uM GlcN6P” value with glucosamine-6-phosphate [3] was less than 1e-05 s⁻¹. In the case of AUAAAAGCGCCAGAACUACAGAAAUGUAGAUGACGAGGCGGAGGUUCAUCGAAUUUUCGGCGGAUGCCUCCAAA [U30A A39C U47C], in the series with glucosamine-6-phosphate [1], the “self-cleavage kobs at 640 uM GlcN6P” value is 4.7e-05 ± 1.3e-05 s⁻¹. AUAAAAGCGCCAGAACUACAGAAAUGUAGUUGACGACGAGGAGGUGUAUUGAAUUUUCGGCGGAUGCCUCCAAA [G37C U46G C50U]: the “self-cleavage kobs at 640 uM GlcN6P” value with glucosamine-6-phosphate [1] was less than 1e-05 s⁻¹. Also, the “self-cleavage kobs at 10000 uM GlcN6P” value with glucosamine-6-phosphate [3] was less than 1e-05 s⁻¹. In the case of AUAAAAGCGCCAUAACUACAGAAAUGUAGUCGACGAGGAGGACGUUUAUCGAAUUUUCGGCGGAUGCCUCCAAA [G13U U31C G43C], the “self-cleavage kobs at 640 uM GlcN6P” value with glucosamine-6-phosphate [1] was less than 1e-05 s⁻¹. Moreover, in the series with glucosamine-6-phosphate [2], the “self-cleavage kobs at 2500 uM GlcN6P” value was less than 1e-05 s⁻¹. The “self-cleavage kobs at 10000 uM GlcN6P” value with glucosamine-6-phosphate [3] was less than 1e-05 s⁻¹. On to AUAAAAGCGCCAGAACUACAGAAAUGUAGUUGACGCGUAGGAGGUUUAACGAAUUUUCGGCGGAUGCCUCCAAA [A36C G38U U49A], for which, in the series with glucosamine-6-phosphate [1], the “self-cleavage kobs at 640 uM GlcN6P” value was less than 1e-05 s⁻¹. Further, the “self-cleavage kobs at 2500 uM GlcN6P” value with glucosamine-6-phosphate [2] was less than 1e-05 s⁻¹.

As to AUAAAAGCGCGAGAACUACAGAAAUGUAGUUGACGAGGAGGAGGCUUAUGGAAUUUUCGGCGGAUGCCUCCAAA [C11G U45C C50G], the “self-cleavage kobs at 640 uM GlcN6P” value in the series with glucosamine-6-phosphate [1] was less than 1e-05 s⁻¹. The “self-cleavage kobs at 2500 uM GlcN6P” value with glucosamine-6-phosphate [2] was less than 1e-05 s⁻¹. As to AUAAACGCGCCAGAACUACAGAAAUGUAGUUGACGAGUAAGAGGUUUGUCGUAUUUUCGGCGCAUGCCUCCAAA [A6C G38U G40A A48G A52U G63C], the “self-cleavage kobs at 640 uM GlcN6P” value with glucosamine-6-phosphate [1] is less than 1e-05 s⁻¹. Also, the “self-cleavage kobs at 2500 uM GlcN6P” value in the series with glucosamine-6-phosphate [2] is less than 1e-05 s⁻¹.

For the variant AUAAAAGCGCUAGAUCUACAGAAAUGUAGUUGACGAGUAGUAGGUUUAUCGAAUUUACGGCGGAUGCCUCCAAA [C11U A15U G38U G41U U57A], in the series with glucosamine-6-phosphate [1], the “self-cleavage kobs at 640 uM GlcN6P” value was less than 1e-05 s⁻¹. Moreover, the “self-cleavage kobs at 2500 uM GlcN6P” value in the series with glucosamine-6-phosphate [2] was less than 1e-05 s⁻¹. For the variant AUAAAAGCGCCGGAACUACAGAAAUGUAGUUGACGAGGAGGAGGUUAAUCGAAUUUUCGGCUGAUGGGUCCAAA [A12G U47A G62U C67G C68G], the “self-cleavage kobs at 640 uM GlcN6P” value in the series with glucosamine-6-phosphate [1] worked out at 0.000122 ± 3.6e-05 s⁻¹.

Take AUAAAAGCGCCAGAACUACAGAAAUGUAGUUGACUAGGAGGAGGUUUAUCGAAUUUUCGGCGUAAGCCUCCAAA [G35U G63U U65A]: in the series with glucosamine-6-phosphate [1], the “self-cleavage kobs at 640 uM GlcN6P” value was less than 1e-05 s⁻¹. The “self-cleavage kobs at 2500 uM GlcN6P” value with glucosamine-6-phosphate [2] was less than 1e-05 s⁻¹. In the case of AUAAAAACGCCAGAACUACAGAAAUGUAGUUGACGAGGCGGAGGUUUAUCGAAUUUUCGGCGGAUGCCUCCAAA [G7A A39C], the “self-cleavage kobs at 640 uM GlcN6P” value in the series with glucosamine-6-phosphate [1] was less than 1e-05 s⁻¹. Moreover, the “self-cleavage kobs at 2500 uM GlcN6P” value with glucosamine-6-phosphate [2] is less than 1e-05 s⁻¹. As for AUAAACGCGCCAGAACUACAGAAAUGUAGUUGACGAGGAGGAGGUUUAUCGAAGUUUCGGCGGAUGCCUUCAAA [A6C U54G C70U], the “self-cleavage kobs at 640 uM GlcN6P” value with glucosamine-6-phosphate [1] is 6.45e-05 ± 2.2e-05 s⁻¹.

As for AUAAAAGCGCCAGAACUACAGAAAUGUAGUUGACGAGGAGGAGGUUCACCGAAUUUUCGGCAAAUGCCUCCAAA [U47C U49C G62A G63A], in the series with glucosamine-6-phosphate [1], the “self-cleavage kobs at 640 uM GlcN6P” value is less than 1e-05 s⁻¹.

With AUAAAAGCGCCAUAACUACAGAAAUGUAGUUGACGAGGAGGAGGUUUAUCGAAUUUUCGUCGGAUGCCUUCAAA [G13U G60U C70U], the “self-cleavage kobs at 640 uM GlcN6P” value in the series with glucosamine-6-phosphate [1] is less than 1e-05 s⁻¹. On to AUAAACGCGCCAGAACUACAGAAAUGUAGUUGACGAGGAGGAGAUUUAUCGAAUUUUCGGCGGGUGCCUCCAAA [A6C G44A A64G], for which, in the series with glucosamine-6-phosphate [1], the “self-cleavage kobs at 640 uM GlcN6P” value was less than 1e-05 s⁻¹. AUAAAAGCGCCAGAACUACAGAAAUGUAGUCGACGAGGAGGAGGUUUAUCGAAUUAUCGGCGGAUGCCUCCAAA [U31C U56A]: the “self-cleavage kobs at 640 uM GlcN6P” value in the series with glucosamine-6-phosphate [1] was 0.00164 ± 0.00028 s⁻¹. In addition, the “self-cleavage kobs at 2500 uM GlcN6P” value with glucosamine-6-phosphate [2] was 0.00201 ± 0.00053 s⁻¹. The corresponding values for AUAAAAGCGCCAGAACUACAGAAAUGUAAUUAACGAGGAGGAGGUUUAUCGAAUUUUCGGCGGAUACCUCCAAA [G29A G32A G66A] are 0.000119 ± 2.8e-05 s⁻¹ and 0.000338 ± 8.3e-05 s⁻¹.
